Broadly, the Kd is a measure of binding affinity in units of concentration. By stoichiometry N is commonly meant a count of units in the complex or per binding partner.

Residue numbers refer to the chain shown, from its start. Names may count otherwise. “And” between values parts separate entries of the source, which are not always exact repeats. Equal entries are not always repeated.

The target of data set [1] is T1, MsVps4ΔMIT (Metallosphaera sedula, UniProt A4YHC5).
T1 construct: gene Msed_1672
Kind of data set: ITC, two-site model. The data set is classed as binding. A general note: ITC needs no label: the signal is the heat of the interaction.

Data set [2] concerns the target T1, MsVps4ΔMIT. Description: ITC. The data set is classed as binding.
Data set [3] deals with the molecule itself. Description: SEC-SAXS; online SEC (Superose 6 10/300 GL) in 50 mM Tris pH 8.8, 50 mM NaCl; 500 µl at 220 µM injected; BM29 at the ESRF. For orientation: Size exclusion chromatography separates by hydrodynamic size, large species first.
Data set [4] deals with the molecule itself. Description: SEC; Superose 6; N-terminally His-tagged full length MsVps4 and mutants at 70 µM, a concentration that induces dodecamer formation; no nucleotide.
Data set [5] deals with the molecule itself. Described as above. This is another data set of the same source.
The next data set has as its target hVPS4B Phe160Ala (human) (UniProt O75351).
Data set [6] addresses T2, hVPS4B E235Q (catalytic mutant of human VPS4B) (human), O75351.
T2 chain: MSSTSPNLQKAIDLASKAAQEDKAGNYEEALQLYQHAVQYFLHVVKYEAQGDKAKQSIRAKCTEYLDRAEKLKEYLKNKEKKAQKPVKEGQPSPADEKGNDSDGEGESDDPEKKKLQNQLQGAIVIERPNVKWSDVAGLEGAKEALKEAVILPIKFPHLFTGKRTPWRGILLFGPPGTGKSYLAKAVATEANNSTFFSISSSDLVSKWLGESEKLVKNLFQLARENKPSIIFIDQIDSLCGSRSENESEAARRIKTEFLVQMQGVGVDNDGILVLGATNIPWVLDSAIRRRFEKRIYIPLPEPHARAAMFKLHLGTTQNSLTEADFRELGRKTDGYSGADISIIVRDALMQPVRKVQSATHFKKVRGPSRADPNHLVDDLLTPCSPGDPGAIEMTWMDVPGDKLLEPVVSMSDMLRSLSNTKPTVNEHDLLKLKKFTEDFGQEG
Kind of data set: SEC; Superose 6; hVPS4B E235Q and mutants of it at 100 µM with 1 mM ATP and 5 mM MgCl2. The settings on record: remark: other sources report otherwise.

Data set [7] deals with the molecule itself. The data set is described as above.
Another data set has as its target hVPS4B Met350Ala (human) (UniProt O75351).
Data set [8] deals with the molecule itself. Kind of data set: SEC; Superose 6; MsVps4ΔMIT at 200 µM (Fig. 1b) and at a series of concentrations up to 0.5 mM (Supplementary Fig. 2); no nucleotide.

`Nc1ncnc2c1ncn2[C@@H]1O[C@H](COP(=O)(O)OP(=O)(O)O)[C@@H](O)[C@H]1O` [ADP]: the Kd at MsVps4ΔMIT [1] came to 400 nM. This lies in the sub-micromolar range. `Nc1ncnc2c1ncn2[C@@H]1O[C@H](COP(=O)(O)OP(=O)(O)OP(=O)(O)O)[C@@H](O)[C@H]1O` [ATP] yielded a Kd at MsVps4ΔMIT [2] of 3300 nM.

B1: MsVPS4 M318A, full length, His tag cleaved (enzyme, Metallosphera sedula, UniProt A4YHC5 1-369, looked up)
chain: MSAQVMLEEMARKYAIAAVRADKEGRREDAINNYKKAIEVLTQIVTLYPDMVARNAYEQMINEYKKRLETLNQMVPEGGEETEKAEEDIVMKEKPKVTLNEIVGLEDVKEALKEAVVYPSKRPDLFPLGWPRGILLYGPPGCGKTMIAAAVANELDSEFIHVDAASIMSKWLGEAEKNVAKIFKTARELSKKENKPAIIFIDELDALLASYTSEVGGEARVRNQFLKEMDGLADKNEISKVYVIGATNKPWRLDEPFLRRFQKRIYITLPDKAHRLELLKHYSSKVKLDPNVNLEELAELTDGYTASDIRDIVQSAHARVVKEMFEKNLQEPRAINMDDFREVLKVRKPSVNQDMLKAYAAWHEKFKAL
B1: the “stoichiometry N” value in data set [3] stood at 6.

B2: MsVps4 Met318Ala, full length, N-terminally His-tagged (enzyme, Metallosphera sedula, UniProt A4YHC5 1-369, looked up)
chain: B1 chain
With B2, the “stoichiometry N” value in [4] was determined as 2; in data set [5] it was 6.

B3: MsVps4 wild type, full length, N-terminally His-tagged (enzyme, Metallosphera sedula, UniProt A4YHC5 1-369, looked up)
chain: B1 chain with A318M
As to B3, the “stoichiometry N” value in data set [4] is 6 and 2; in [5], 12.

B4: MsVps4 Glu214Tyr, full length, N-terminally His-tagged (enzyme, Metallosphera sedula, UniProt A4YHC5 1-369, looked up)
chain: B1 chain with E214Y, A318M
On to B4, for which the “stoichiometry N” value in data set [4] is 6 and 2; in data set [5], 12.

B5: MsVps4 Glu174Ala Glu176Ala, full length, N-terminally His-tagged (enzyme, Metallosphera sedula, UniProt A4YHC5 1-369, looked up)
chain: B1 chain with E174A, E176A, A318M
On to B5, for which the “stoichiometry N” value in [4] was 6 and 2; in data set [5] it was 12.

B6: MsVps4 Ser169Ala, full length, N-terminally His-tagged (enzyme, Metallosphera sedula, UniProt A4YHC5 1-369, looked up)
chain: B1 chain with S169A, A318M
For the molecule B6, the “stoichiometry N” value in data set [4] was 6; in data set [5], 12.

B7: MsVps4 Arg259Ala Arg260Ala, full length, N-terminally His-tagged (enzyme, Metallosphera sedula, UniProt A4YHC5 1-369, looked up)
chain: B1 chain with R259A, R260A, A318M
For the molecule B7, the “stoichiometry N” value in data set [4] is 2; in data set [5], 6.

B8: MsVps4 Ile89Glu, full length, N-terminally His-tagged (enzyme, Metallosphera sedula, UniProt A4YHC5 1-369, looked up)
chain: B1 chain with I89E, A318M
Turning to B8, the “stoichiometry N” value in data set [4] came to 6; in data set [5], 12.

B9: hVPS4B Phe160Ala (enzyme)
chain: T2 chain with F160A, Q235E
In turn, B9 yielded an ATPase activity at 37°C with ATP/Mg, percent of wild-type hVPS4B in the data set with hVPS4B Phe160Ala (human) of 0%.

B10: hVPS4B E235Q (catalytic mutant of human VPS4B), O75351 1-444 (enzyme)
chain: T2 chain
For the molecule B10, the stoichiometry N in data set [6] came out at 6.

B11: hVPS4B E235Q Ile124Glu (enzyme, human, UniProt O75351 1-444, looked up)
chain: T2 chain with I124E
As for B11, in data set [7], the “stoichiometry N” value stood at 6.

B12: hVPS4B Met350Ala (enzyme)
chain: T2 chain with Q235E, M350A
In turn, B12 displayed an ATPase activity at 37°C with ATP/Mg, percent of wild-type hVPS4B with hVPS4B Met350Ala (human) of 0%.

B13: MsVps4ΔMIT (residues 75 to 369) (domain or fragment, Metallosphera sedula, UniProt A4YHC5 75-369, looked up)
chain: VPEGGEETEKAEEDIVMKEKPKVTLNEIVGLEDVKEALKEAVVYPSKRPDLFPLGWPRGILLYGPPGCGKTMIAAAVANELDSEFIHVDAASIMSKWLGEAEKNVAKIFKTARELSKKENKPAIIFIDELDALLASYTSEVGGEARVRNQFLKEMDGLADKNEISKVYVIGATNKPWRLDEPFLRRFQKRIYITLPDKAHRLELLKHYSSKVKLDPNVNLEELAELTDGYTASDIRDIVQSAHMRVVKEMFEKNLQEPRAINMDDFREVLKVRKPSVNQDMLKAYAAWHEKFKAL
With B13, the “stoichiometry N” value in [8] amounted to 6.
